According to PMC9482650, “Quantitative fragmentomics allow affinity mapping of interactomes” (Nature Communications, 2022):
Numbering of substitutions follows the chain as printed.

target: T1, APBA2_2, Q99767; experiment: holdup assay; design: key: below the threshold = too weak to quantify, mostly under pKd 3.1 to 4; details: plain residues with an end cap or a label only (N-terminal biotin on a linker: ado-ado)
T1 sequence (Q99767 654-744, limits assumed, looked up): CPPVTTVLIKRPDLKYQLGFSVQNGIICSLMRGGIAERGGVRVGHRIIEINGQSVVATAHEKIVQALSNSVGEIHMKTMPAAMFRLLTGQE

| Binder | pKd |
| --- | --- |
| PPYRHRNTVV [ERBB4, Q15303] | below the threshold |
| RRISSLESEV [GRIN2C, Q14957] | below the threshold |

target: T2, ARHGAP21, Q5T5U3; experiment: holdup assay; design: key: below the threshold = too weak to quantify, mostly under pKd 3.1 to 4; details: plain residues with an end cap or a label only (N-terminal biotin on a linker: ado-ado)
T2 sequence (Q5T5U3 45-169, limits assumed, looked up): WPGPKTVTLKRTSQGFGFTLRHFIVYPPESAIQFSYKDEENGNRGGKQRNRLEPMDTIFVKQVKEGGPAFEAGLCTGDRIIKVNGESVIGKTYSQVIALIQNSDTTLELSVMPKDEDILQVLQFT

| Binder | pKd |
| --- | --- |
| PPYRHRNTVV [ERBB4, Q15303] | 4.08 |
| RRISSLESEV [GRIN2C, Q14957] | below the threshold |

target: DLG1_2, Q12959; experiment: holdup assay; design: key: below the threshold = too weak to quantify, mostly under pKd 3.1 to 4; details: plain residues with an end cap or a label only (N-terminal biotin on a linker: ado-ado)
Sequence (Q12959 314-412): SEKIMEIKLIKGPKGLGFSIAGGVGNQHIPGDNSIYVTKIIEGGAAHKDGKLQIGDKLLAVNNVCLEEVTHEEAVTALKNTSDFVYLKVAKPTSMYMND

| Binder | pKd |
| --- | --- |
| PPYRHRNTVV [ERBB4, Q15303] | 5.25 |
| RRISSLESEV [GRIN2C, Q14957] | 5.51 |

target: DLG1_3, Q12959; experiment: holdup assay; design: key: below the threshold = too weak to quantify, mostly under pKd 3.1 to 4; details: plain residues with an end cap or a label only (N-terminal biotin on a linker: ado-ado)
Sequence (Q12959 457-571): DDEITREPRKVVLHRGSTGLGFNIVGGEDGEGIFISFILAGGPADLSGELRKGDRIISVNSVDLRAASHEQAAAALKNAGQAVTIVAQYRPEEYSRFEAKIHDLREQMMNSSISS

| Binder | pKd |
| --- | --- |
| PPYRHRNTVV [ERBB4, Q15303] | 4.01 |
| RRISSLESEV [GRIN2C, Q14957] | 4.09 |

target: DLG4_3, P78352; experiment: holdup assay; design: key: below the threshold = too weak to quantify, mostly under pKd 3.1 to 4; details: plain residues with an end cap or a label only (N-terminal biotin on a linker: ado-ado)
Sequence (P78352 306-403): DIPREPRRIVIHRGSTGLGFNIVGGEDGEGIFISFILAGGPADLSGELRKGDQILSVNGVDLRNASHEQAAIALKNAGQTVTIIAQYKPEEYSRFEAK

| Binder | pKd |
| --- | --- |
| PPYRHRNTVV [ERBB4, Q15303] | 4.23 |
| RRISSLESEV [GRIN2C, Q14957] | 3.78 |

target: FRMPD2_1, Q68DX3; experiment: holdup assay; design: key: below the threshold = too weak to quantify, mostly under pKd 3.1 to 4; details: plain residues with an end cap or a label only (N-terminal biotin on a linker: ado-ado)
Sequence (Q68DX3 770-861): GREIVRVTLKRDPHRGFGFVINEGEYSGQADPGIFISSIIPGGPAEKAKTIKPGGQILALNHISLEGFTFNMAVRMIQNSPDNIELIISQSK

| Binder | pKd |
| --- | --- |
| PPYRHRNTVV [ERBB4, Q15303] | 3.71 |
| RRISSLESEV [GRIN2C, Q14957] | below the threshold |

target: T3, GRIP1_4, Q9Y3R0; experiment: holdup assay; design: key: below the threshold = too weak to quantify, mostly under pKd 3.1 to 4; details: plain residues with an end cap or a label only (N-terminal biotin on a linker: ado-ado)
T3 sequence (Q9Y3R0 467-571, limits assumed, looked up): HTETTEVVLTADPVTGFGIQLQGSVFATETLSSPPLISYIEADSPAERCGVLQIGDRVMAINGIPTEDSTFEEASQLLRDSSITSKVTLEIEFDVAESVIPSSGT

| Binder | pKd |
| --- | --- |
| PPYRHRNTVV [ERBB4, Q15303] | below the threshold |
| RRISSLESEV [GRIN2C, Q14957] | below the threshold |

target: T4, HTRA4, P83105; experiment: holdup assay; design: key: below the threshold = too weak to quantify, mostly under pKd 3.1 to 4; details: plain residues with an end cap or a label only (N-terminal biotin on a linker: ado-ado)
T4 sequence (P83105 378-476, limits assumed, looked up): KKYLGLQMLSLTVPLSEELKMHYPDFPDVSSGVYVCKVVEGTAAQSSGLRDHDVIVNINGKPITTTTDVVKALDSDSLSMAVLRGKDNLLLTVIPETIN

| Binder | pKd |
| --- | --- |
| PPYRHRNTVV [ERBB4, Q15303] | below the threshold |
| RRISSLESEV [GRIN2C, Q14957] | below the threshold |

target: IL16_4, Q14005; experiment: holdup assay; design: key: below the threshold = too weak to quantify, mostly under pKd 3.1 to 4; details: plain residues with an end cap or a label only (N-terminal biotin on a linker: ado-ado)
Sequence (Q14005 1229-1329): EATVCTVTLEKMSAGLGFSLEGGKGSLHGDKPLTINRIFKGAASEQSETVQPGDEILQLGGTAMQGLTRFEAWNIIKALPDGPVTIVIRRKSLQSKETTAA

| Binder | pKd |
| --- | --- |
| PPYRHRNTVV [ERBB4, Q15303] | below the threshold |
| RRISSLESEV [GRIN2C, Q14957] | below the threshold |

target: Inadl_3, Q8NI35; experiment: holdup assay; design: key: below the threshold = too weak to quantify, mostly under pKd 3.1 to 4; details: plain residues with an end cap or a label only (N-terminal biotin on a linker: ado-ado)
Sequence (Q8NI35 359-469): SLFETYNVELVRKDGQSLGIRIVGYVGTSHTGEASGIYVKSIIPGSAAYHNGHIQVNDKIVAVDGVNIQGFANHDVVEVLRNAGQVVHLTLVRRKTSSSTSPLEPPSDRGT

| Binder | pKd |
| --- | --- |
| PPYRHRNTVV [ERBB4, Q15303] | below the threshold |
| RRISSLESEV [GRIN2C, Q14957] | 3.68 |

target: Inadl_6, Q8NI35; experiment: holdup assay; design: key: below the threshold = too weak to quantify, mostly under pKd 3.1 to 4; details: plain residues with an end cap or a label only (N-terminal biotin on a linker: ado-ado)
Sequence (Q8NI35 1058-1167): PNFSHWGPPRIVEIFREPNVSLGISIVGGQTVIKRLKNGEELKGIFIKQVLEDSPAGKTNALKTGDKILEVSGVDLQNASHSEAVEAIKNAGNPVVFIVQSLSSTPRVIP

| Binder | pKd |
| --- | --- |
| PPYRHRNTVV [ERBB4, Q15303] | below the threshold |
| RRISSLESEV [GRIN2C, Q14957] | below the threshold |

target: LAP2, Q96RT1; experiment: holdup assay; design: key: below the threshold = too weak to quantify, mostly under pKd 3.1 to 4; details: plain residues with an end cap or a label only (N-terminal biotin on a linker: ado-ado)
Sequence (Q96RT1 other isoform, or with tags, fused parts or gaps): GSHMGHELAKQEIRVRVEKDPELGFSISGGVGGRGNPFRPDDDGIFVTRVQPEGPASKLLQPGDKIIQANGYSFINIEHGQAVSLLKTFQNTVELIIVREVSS

| Binder | pKd |
| --- | --- |
| PPYRHRNTVV [ERBB4, Q15303] | below the threshold |
| RRISSLESEV [GRIN2C, Q14957] | 4.46 |

target: T5, LIN7B, Q9HAP6; experiment: holdup assay; design: key: below the threshold = too weak to quantify, mostly under pKd 3.1 to 4; details: plain residues with an end cap or a label only (N-terminal biotin on a linker: ado-ado)
T5 sequence (Q9HAP6 88-185, limits assumed, looked up): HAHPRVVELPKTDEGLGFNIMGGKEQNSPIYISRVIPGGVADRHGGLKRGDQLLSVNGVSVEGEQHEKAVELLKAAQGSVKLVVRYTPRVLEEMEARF

| Binder | pKd |
| --- | --- |
| PPYRHRNTVV [ERBB4, Q15303] | below the threshold |
| RRISSLESEV [GRIN2C, Q14957] | 4.12 |

target: T6, LIN7C, Q9NUP9; experiment: holdup assay; design: key: below the threshold = too weak to quantify, mostly under pKd 3.1 to 4; details: plain residues with an end cap or a label only (N-terminal biotin on a linker: ado-ado)
T6 sequence (Q9NUP9 88-185, limits assumed, looked up): T5 sequence (Q9HAP6 88-185, limits assumed, looked up) with A2S, D13E, V35I, V40I, Q65H, S79K, R89K, A96S

| Binder | pKd |
| --- | --- |
| PPYRHRNTVV [ERBB4, Q15303] | below the threshold |
| RRISSLESEV [GRIN2C, Q14957] | 4.29 |

target: LNX1_2, Q8TBB1; experiment: holdup assay; design: key: below the threshold = too weak to quantify, mostly under pKd 3.1 to 4; details: plain residues with an end cap or a label only (N-terminal biotin on a linker: ado-ado)
Sequence (Q8TBB1 371-470): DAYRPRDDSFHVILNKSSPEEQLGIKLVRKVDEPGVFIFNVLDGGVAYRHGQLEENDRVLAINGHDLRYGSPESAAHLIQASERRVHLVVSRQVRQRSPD

| Binder | pKd |
| --- | --- |
| PPYRHRNTVV [ERBB4, Q15303] | 3.54 |
| RRISSLESEV [GRIN2C, Q14957] | below the threshold |

target: LNX1_3, Q8TBB1; experiment: holdup assay; design: key: below the threshold = too weak to quantify, mostly under pKd 3.1 to 4; details: plain residues with an end cap or a label only (N-terminal biotin on a linker: ado-ado)
Sequence (Q8TBB1 500-596): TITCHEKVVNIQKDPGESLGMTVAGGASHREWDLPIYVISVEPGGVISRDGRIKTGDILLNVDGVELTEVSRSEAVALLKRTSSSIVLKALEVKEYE

| Binder | pKd |
| --- | --- |
| PPYRHRNTVV [ERBB4, Q15303] | below the threshold |
| RRISSLESEV [GRIN2C, Q14957] | below the threshold |

target: T7, LNX2_3, Q8N448; experiment: holdup assay; design: key: below the threshold = too weak to quantify, mostly under pKd 3.1 to 4; details: plain residues with an end cap or a label only (N-terminal biotin on a linker: ado-ado)
T7 sequence (Q8N448 463-564, limits assumed, looked up): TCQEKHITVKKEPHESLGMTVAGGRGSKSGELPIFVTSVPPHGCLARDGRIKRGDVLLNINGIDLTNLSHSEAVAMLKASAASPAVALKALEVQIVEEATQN

| Binder | pKd |
| --- | --- |
| PPYRHRNTVV [ERBB4, Q15303] | below the threshold |
| RRISSLESEV [GRIN2C, Q14957] | below the threshold |

target: MAGI2_4, Q86UL8; experiment: holdup assay; design: key: below the threshold = too weak to quantify, mostly under pKd 3.1 to 4; details: plain residues with an end cap or a label only (N-terminal biotin on a linker: ado-ado)
Sequence (Q86UL8 772-865): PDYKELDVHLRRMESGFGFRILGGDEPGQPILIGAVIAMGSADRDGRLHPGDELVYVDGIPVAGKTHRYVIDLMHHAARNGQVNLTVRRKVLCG

| Binder | pKd |
| --- | --- |
| PPYRHRNTVV [ERBB4, Q15303] | 4.43 |
| RRISSLESEV [GRIN2C, Q14957] | 3.95 |

target: T8, NHERF3_4, Q5T2W1; experiment: holdup assay; design: key: below the threshold = too weak to quantify, mostly under pKd 3.1 to 4; details: plain residues with an end cap or a label only (N-terminal biotin on a linker: ado-ado)
T8 sequence (Q5T2W1 373-468, limits assumed, looked up): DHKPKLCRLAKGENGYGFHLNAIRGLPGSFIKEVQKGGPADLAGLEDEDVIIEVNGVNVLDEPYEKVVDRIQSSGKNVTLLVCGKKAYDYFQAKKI

| Binder | pKd |
| --- | --- |
| PPYRHRNTVV [ERBB4, Q15303] | below the threshold |
| RRISSLESEV [GRIN2C, Q14957] | 3.66 |

target: T9, PDZD2_2, O15018; experiment: holdup assay; design: key: below the threshold = too weak to quantify, mostly under pKd 3.1 to 4; details: plain residues with an end cap or a label only (N-terminal biotin on a linker: ado-ado)
T9 sequence (O15018 329-429, limits assumed, looked up): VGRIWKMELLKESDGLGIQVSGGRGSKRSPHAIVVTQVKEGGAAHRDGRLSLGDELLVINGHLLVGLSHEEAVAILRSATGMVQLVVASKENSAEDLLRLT

| Binder | pKd |
| --- | --- |
| PPYRHRNTVV [ERBB4, Q15303] | 4.25 |
| RRISSLESEV [GRIN2C, Q14957] | 4.98 |

target: T10, PDZRN3_1, Q9UPQ7; experiment: holdup assay; design: key: below the threshold = too weak to quantify, mostly under pKd 3.1 to 4; details: plain residues with an end cap or a label only (N-terminal biotin on a linker: ado-ado)
T10 sequence (Q9UPQ7 244-349, limits assumed, looked up): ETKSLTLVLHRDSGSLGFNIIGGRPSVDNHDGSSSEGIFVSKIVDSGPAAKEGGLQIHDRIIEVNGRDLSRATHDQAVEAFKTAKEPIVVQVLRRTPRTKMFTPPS

| Binder | pKd |
| --- | --- |
| PPYRHRNTVV [ERBB4, Q15303] | 3.54 |
| RRISSLESEV [GRIN2C, Q14957] | 4.24 |

target: SCRIB_2, Q14160; experiment: holdup assay; design: key: below the threshold = too weak to quantify, mostly under pKd 3.1 to 4; details: plain residues with an end cap or a label only (N-terminal biotin on a linker: ado-ado)
Sequence (Q14160 857-960): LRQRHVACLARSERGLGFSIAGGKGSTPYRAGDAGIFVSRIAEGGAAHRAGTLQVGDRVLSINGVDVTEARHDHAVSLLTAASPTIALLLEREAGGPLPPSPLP

| Binder | pKd |
| --- | --- |
| PPYRHRNTVV [ERBB4, Q15303] | below the threshold |
| RRISSLESEV [GRIN2C, Q14957] | 4.28 |

target: T11, SNTB1, Q13884; experiment: holdup assay; design: key: below the threshold = too weak to quantify, mostly under pKd 3.1 to 4; details: plain residues with an end cap or a label only (N-terminal biotin on a linker: ado-ado)
T11 sequence (Q13884 107-205, limits assumed, looked up): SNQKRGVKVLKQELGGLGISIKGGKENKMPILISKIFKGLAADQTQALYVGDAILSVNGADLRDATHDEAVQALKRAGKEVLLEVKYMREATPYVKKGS

| Binder | pKd |
| --- | --- |
| PPYRHRNTVV [ERBB4, Q15303] | 5 |
| RRISSLESEV [GRIN2C, Q14957] | 4.64 |

target: T12, SNTG2, Q9NY99; experiment: holdup assay; design: key: below the threshold = too weak to quantify, mostly under pKd 3.1 to 4; details: plain residues with an end cap or a label only (N-terminal biotin on a linker: ado-ado)
T12 sequence (Q9NY99 68-166, limits assumed, looked up): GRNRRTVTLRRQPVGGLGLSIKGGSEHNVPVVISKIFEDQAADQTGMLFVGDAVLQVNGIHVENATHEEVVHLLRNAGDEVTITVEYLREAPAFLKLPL

| Binder | pKd |
| --- | --- |
| PPYRHRNTVV [ERBB4, Q15303] | 3.89 |
| RRISSLESEV [GRIN2C, Q14957] | 4.24 |

target: TJP1_3, Q07157; experiment: holdup assay; design: key: below the threshold = too weak to quantify, mostly under pKd 3.1 to 4; details: plain residues with an end cap or a label only (N-terminal biotin on a linker: ado-ado)
Sequence (Q07157 416-512): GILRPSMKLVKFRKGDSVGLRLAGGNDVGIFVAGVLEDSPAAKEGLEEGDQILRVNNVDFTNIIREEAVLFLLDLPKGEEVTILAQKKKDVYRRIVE

| Binder | pKd |
| --- | --- |
| PPYRHRNTVV [ERBB4, Q15303] | below the threshold |
| RRISSLESEV [GRIN2C, Q14957] | below the threshold |
